Consider one molecule from US20100247549A1.

Values joined by “and” are separate entries in the source; they are usually repeats but may differ in a detail not shown here. Equal entries are not always repeated.

This experiment concerns the target DENV-4 parental viruses. Briefly: cell-based or functional assay.

B1: Humanized IgG 5H2 ΔD (IgG1 5H2 with a 9-amino-acid deletion, positions 231-239, at the N-terminus of the CH2 domain) (antibody)
heavy: EVQLLESGPGLVKPSETLSLTCTVSGGSISDFYWSWLRQSPGKGLEWIGYAHSRVSAYYNPSLKSRVTISVDTSKNQLSLRLSAVTAADTALYYCARQGTGTTGVSEDFFDLWGQGTKVIVSLASTKGPSVFPLAPSSKSTSGGTAALGCLVKDYFPEPVTVSWNSGALTSGVHTFPAVLQSSGLYSLSSVVTVPSSSLGTQTYICNVDHKPSNTKVDKKVEPKSCDKTHTCPPCPVFLFPPKPKDTLMISRTPEVTCVVVDVSHEDPEVKFNWYVDGVEVHNAKTKPREEQYNSTYRVVSVLTVLHQDWLNGKEYKCKVSNKALPAPIEKTISKAKGQPREPQVYTLPPSRDELTKNQVSLTCLVKGFYPSDIAVEWESNGQPENNYKTTPPVLDSDGSFFLYSKLTVDKSRWQQGNVFSCSVMHEALHNHYTQKSLSLSPGK
light: not shown
Take B1: the PRNT50 titer is 0.03 µg/mL and 0.05 µg/mL.
